Legend:
Beas-2B cells = assay: Cell ELISA of MBP-ECP and MBP-ECP mt1 binding to cells; format: cell-based, human; settings: MBP-ECP mt1 relative to MBP-ECP; 1 h at 4° C.
Beas-2B cell line = assay: MTT cytotoxicity assay of ECP; format: cell-based, human; settings: 37° C. 48 h, read-out: IC50 for cytotoxic ECP
Procedure: FIG. 12. Cytotoxicity of wild-type and mutant ECP. Beas-2B cells were incubated with increasing concentrations of wild-type and mt1 ECP at 37° C. for 48 h, followed by the MTT assay. The error bars show standard deviation among triplicate experiments.
The inhibition of lymphocyte and mammalian cell growth by ECP has been reported (Fan, T. C., et al. (2007) Traffic 8, 1778-1795; Maeda, T., et al. (2002) European Journal of Biochemistry 269, 307-316). As a physiological test, the cytotoxicity of ECP mt1 was monitored by MTT assay. The effect of ECP on the cell growth was determined by a colorimetric assay using 3-(4,5-dimethylthiazol-2-yl)-2,5-diphenyltetrazolium bromide (MTT) (US Biological, MA, USA). Cells were plated in a 96-well plate (5000 cells/well) and incubated at 37° C. overnight. Each sample was incubated with the indicated concentration (1-100 μM) of ECP. Forty-eight hours after treatment with ECP, MTT was added, and cell growth was monitored at A570 to measure the mitochondrial-dependent formation of a colored product.

B1: ECP mt1: ECP mutant with R34A/W35A/R36A/K38A substitutions (protein, UniProt P12724 28-160, looked up, variant R34A W35A R36A K38A)
Eosinophil cationic protein: RPPQFTRAQWFAIQHISLNPPRCTIAMRAINNYAAACANQNTFLRTTFANVVNVCGNQSIRCPHNRTLNNCHRSRFRVPLLHCDLINPGAQNISNCTYADRPGRRFYVVACDNRDPRDSPRYPVVPVHLDTTI
- cell-binding activity (Beas-2B cells): 50%
- IC50 (Beas-2B cell line): 38.5 µM

— patent US8399416B2, “Method of using heparin binding motif for treating asthma” (National Tsing Hua University, priority 2008, dated 2013)
